Assay results: the nanobody polyreactivity screen of Harvey et al. (2022)

Test: yeast display, Sf9 membrane polyspecificity reagent, FACS + sequencing; frameworks hold sequencing errors
Procedure, shortened: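 Polyreactivity labels are assigned by the sorting gate from which each nanobody was recovered. The gates were low and high (top ~1%), set on anti-HA fluorescence for expression and streptavidin fluorescence for reagent binding. Before sorting, galactose-induced (36–48 hours) yeast display cells were stained for 1 hour at 4 °C with 10% biotinylated, detergent-solubilized Sf9 membrane reagent.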

Sequence | polyreactivity (PSR sort gate)
QVQLVESGGGLVQAGGSLRLSCAASGRTFWYYAMGWYRQAPGKEREFVAAISWSGGSTYYADSVKGRFTISRDNAKNTVYLQMNSLKPEDTAVYYCAADRYDSSQFYYWGQGTQVTVSS | low polyreactivity
QVQLVESGGGLVQAGGSLRLSCAASGRTFWYYAMGWYRQAPGKERELVAAITSGGSTNYADSVKGRFTISRDNAKNTVYLQMNSLKPEDTAVYYCAVDGLGGREGYWGQGTQVTVSS | high polyreactivity
QVQLVESGGGLVQAGGSLRLSCAASGRTFWYYAMGWYRQSPGKERELVAVITSGSSTYYADSVKGRFTISRDNAKNTVYLQMNSLKPEDTAVYYCAVGRTYRRYSAASYNYWGQGTQVTVSS | high polyreactivity
QVQLVESGGGLVQAGGSLRLSCAASGRTFWYYARGWYRQAPGKERELVAYADSVKGRFTISRDNAKNTVYLQMNSLKQEDTAVYYCAVGPVVWFSSSLYYTDYYYWGQGTQVTVSS | low polyreactivity
QVQLVESGGGLVQAGGSLRLSCAASGRTFWYYGMGWYRQAPGKERELVAAIRGSGGSTYYADSVKGRFTISRDNAKNTVYLQMNSLKPEDTAVYYCAKRSYIRPKYTYEYWGQGTQVTVSS | high polyreactivity
QVQLVESGGGLVQAGGSLRLSCAASGRTFWYYGMGWYRQAPGKERELVAAISRSGGRTSYADSVKGRFTISRDNAKNTVYLQMNSLKPEDTAVYYCATDGYYRYGYWGQGTQVTVAS | high polyreactivity
QVQLVESGGGLVQAGGSLRLSCAASGRTFWYYTMGWYRQAPGKEREFVAAISYSAGNTYYADSVKGRFTISRDNAKNTVYLQMNSLKPEDTAVYYCAVQRGYRSNAYDYWGQGTQVTVSS | high polyreactivity
QVQLVESGGGLVQAGGSLRLSCAASGRTFWYYTMGWYRQAPGKERELVASITSGSGTTYYADSVKGRFTISRDNAKNTVYLQMNSLKPEDTAVSSCAAKNTPSFFYYDRYDYWGQGTQVTVSS | low polyreactivity
QVQLVESGGGLVQAGGSLRLSCAASGRTFYANAMGWYRQAPGKERELVATISSGGRTNYADSVKGRFTISRDNAKNTVYFQMNSLKPEDTAVYYCAKRGPYNRWYGRYDYWGQGTQVTVSS | low polyreactivity
QVQLVESGGGLVQAGGSLRLSCAASGRTFYANAMGWYRQAPGKERELVATITRGGSTNYADSVKGRFTISRDNAKNTVYLQMNSLKPEDTAVYYCAARSYTSSHRHYYWGQGTQVTVSS | low polyreactivity
QVQLVESGGGLVQAGGSLRLSCAASGRTFYANLMGWYRQAPGKERELVAAITYSGGSTYYADSVKGRFTISRDNATITVYLPMSSLKPEDTAVYYCAADNVSTFYYWGQGTQVTVSS | low polyreactivity
QVQLVESGGGLVQAGGSLRLSCAASGRTFYANTMGRYRQAPGTERELVAGITSGGSTSYADSVKGRFTISRDNAKNTVYLQMNSLKPEDTAVYYCAAQFYRYTATGYYADGYWGQGTQVTVSS | low polyreactivity
QVQLVESGGGLVQAGGSLRLSCAASGRTFYAYAMGWYRQAPGKDRELVAAITLSTGTTYYADSVKGRFTISRDNAKNTVYLQMNSLKPADTAVYYCAVEGYWYAGWYAMDYWGQGTQVTVSS | low polyreactivity
QVQLVESGGGLVQAGGSLRLSCAASGRTFYAYAMGWYRQAPGKERELVAAITKRDGITFYADSVKGRFTISRDNAKNTVYLQMNSLKPEDTAVYYCAATGYVGGIYGHYPRGYWGQGTQVTVSS | high polyreactivity
QVQLVESGGGLVQAGGSLRLSCAASGRTFYDNTMGWYRQAPGKERELVAAISRGGSTYADSVKGRFTISRDNAKNTVYLELNSLKPEDTAVYYSNKRSITTEYGYWGQGTQVTVSS | low polyreactivity
QVQLVESGGGLVQAGGSLRLSCAASGRTFYFNTMGWDRPAPGKERELVAAIDERGDSTYYADSVKGRFTISRDNAKNTVYLQMNSLKPEDTAVYYCATDWTLEVYYGRYIAKYEYGSWGQGTQVTVSS | low polyreactivity
QVQLVESGGGLVQAGGSLRLSCAASGRTFYFYTMGWYRQAPGKERELVAAISWSGGSTYYADSVKGRFTISRDNAKNTVYLQMISLKPEDTAVYYCAASSPWEQSNDQFYYWGQGTQVTVSS | low polyreactivity
QVQLVESGGGLVQAGGSLRLSCAASGRTFYGNAMGWYRQAPGKERELVAAINRDGGTYYADSVKGRFTISRDNAKNTVYLQMNSLKPEDTAVYYCNAVKRGIRYGYWGQGTQVTVSS | high polyreactivity
QVQLVESGGGLVQAGGSLRLSCAASGRTFYGNAMGWYRQAPGKERELVAAISWSGGGTYYADSVKGRFTISRDNAKNTVYLQMNSLKPEDTAVYYCAAQFGRKGSGVWTRPENYWGQGTQVTVSS | high polyreactivity
QVQLVESGGGLVQAGGSLRLSCAASGRTFYGNAMGWYRQAPGKERELVAAISYRTGRTYYADSVKGRFTISRDNAKNTVYLQMNSLKPEDTAVYYCAADLHSRDDYWGQGTKVTVSS | high polyreactivity
QVQLVESGGGLVQAGGSLRLSCAASGRTFYGYAMGLYRQAPGKERELGASIRQSAGRTYYADSVKGRFTISRDNAMNTVYLQMNSLNPEDTAVYYCAASIFLRSFYQQGNYWGQGTQVTVSS | high polyreactivity
QVQLVESGGGLVQAGGSLRLSCAASGRTFYGYAMGWYRQAPGKEREFVAAINRSGGTTYYADSVKGRFTISRDNAKNTVYLQMNSLKPEDTAVYYCAADYSRIRRWPGYYAYDYWGQGTQVTVSS | high polyreactivity

Sequence | polyreactivity (PSR sort gate)
QVQLVESGGGLVQAGGSLRLSCAASGRTFYGYAMGWYRQAPGKEREFVAAINWSGGTTYYADSVKGRFTISRDNAKNTVYLQMNSLKPEDTAVYYCAADYYRIRRWPGYYAYDYWGQGTQVTVSS | high polyreactivity
QVQLVESGGGLVQAGGSLRLSCAASGRTFYGYAMGWYRQAPGKEREFVAAITYSGGRTYYADSVKGRFTISRDNAKNTVYLQMNSLKPEETAVYYCNAYYYYVNQGRYEYGYWGQGTQVTVSS | high polyreactivity
QVQLVESGGGLVQAGGSLRLSCAASGRTFYGYAMGWYRQAPGKERELVAVITRDGSTNYADSVKGRFTISRDNAKNTVYLQMNSLKPEDTAVYDCAAERLAYRVRWRYNQEDYWGQGTQVTVSS | high polyreactivity
QVQLVESGGGLVQAGGSLRLSCAASGRTFYGYTMGWYRQAPGKERELVAAISRNGASTFYADSVKGRFTISRDNAKNTVYLQMNSLKPEDTAVYYCNARSWRHTDTSFEYWGQGTQVTVSS | high polyreactivity
QVQLVESGGGLVQAGGSLRLSCAASGRTFYGYTMGWYRQAPGKERELVAAISTGGGSTYYADSVKGRFTISRDNAKNTVYLQMNSLKPEDTEVYYCAARGGSYSFRRYNYWGQGTQVTVSS | high polyreactivity
QVQLVESGGGLVQAGGSLRLSCAASGRTFYHNTIGGYRQQPGKERELVAVINDSGTRTYYADSVKGRFTISRDNAKNTVYLQMNSLKPEDTAVYYCAARSYVGGAILGYWGQGTQVTVSS | high polyreactivity
QVQLVESGGGLVQAGGSLRLSCAASGRTFYHYTMGWYTQAPGKERELVAAISSGGSTNYADSVKGRFTISRDNAKNTVYLQMNSLKPEDTAVYYCAARYRGWSGGYDYWGQGTQETVSS | high polyreactivity
QVQLVESGGGLVQAGGSLRLSCAASGRTFYINAMGWYRPEPGKERELVAAISSSGGITYYADSVKGRFTISRDNAKNTVNLQMIRLKPEDTAVYYCNAPNDYSWHYDYWGQGTQVTVSS | low polyreactivity
QVQLVESGGGLVQAGGSLRLSCAASGRTFYINAMGWYRQAPGKEREFVAAITDGGDRTYYADSVKGRFTISRDNEKNTVYLQMNSLKPEDTAVYYCAADRGVRYDYWGQGTQVTVSS | low polyreactivity
QVQLVESGGGLVQAGGSLRLSCAASGRTFYIYAMGWYRQAPGKERELVAAITYGGGRTFYADSVKGRFTISRDNAKNTVYLQMNSLKPEDTAVYYCAASVRGKRSTYDYWGQGTQVTVSS | high polyreactivity
QVQLVESGGGLVQAGGSLRLSCAASGRTFYIYAMGWYRQAPGKERELVAAITYGGGRTFYADSVKGRFTISRDNAKNTVYLQMNSLKPEDTAVYYCAATVRGKRSTYDYWGQGTQVTVSS | high polyreactivity
QVQLVESGGGLVQAGGSLRLSCAASGRTFYIYAMGWYRQAPGKERELVAAITYGGGRTFYADSVKGRFTISRDNAKNTVYLQMNSLKPEDTAVYYCARGDFYYHSRYTYYTSDYWGQGTQVTVSS | high polyreactivity
QVQLVESGGGLVQAGGSLRLSCAASGRTFYIYAMGWYRQAPGTERELVAAITWSGGTTYYADSVKGRFTISRDNAKNTVYLQMNSLKPEDTAVYYCAADRYGFYLESYYWGQGTQVTVSS | low polyreactivity
QVQLVESGGGLVQAGGSLRLSCAASGRTFYKNAMGWYRQAPWKERELVAAISYGGGSTYYADSVKGRFTISRDNAKNTVYLQMNSLKPEDTAVYYCATQLPFRKPWHDYWGQGTQVTVSS | high polyreactivity
QVQLVESGGGLVQAGGSLRLSCAASGRTFYKNTMGWYRQAPGKERELVATITRRGGTTYYADSVKGRFTISRDNAKNTVYLQMNSLKPEDTAVYYCAKDASTEKYDYWGQGTQVTVSS | low polyreactivity
QVQLVESGGGLVQAGGSLRLSCAASGRTFYKYMGWYRQAPGKERELVAAIRWSGGSTYYADSVKGRFTISRDNAKNTVYLQMNSLKPEDTAVYYCAAGKQAPAVNYGYYYWGQGTQVTVSS | low polyreactivity
QVQLVESGGGLVQAGGSLRLSCAASGRTFYLNAMGWYRPAPGKDRELVATITSRAGSTRYADSVKGRFTISRDNAKNTVYLQMNSLKPEDTAVYYCAVRSTDPYRRGPSYYYWGQGTQVTVSS | high polyreactivity
QVQLVESGGGLVQAGGSLRLSCAASGRTFYLNAMGWYRQAPGKVRELVAAIRFSGGSTYYADSVKGRFTISRDNAKNTVYLQMNSLKPEDTAVYYCNAGPYHSLYPTVSEYGYWGQGTQVTVSS | low polyreactivity
QVQLVESGGGLVQAGGSLRLSCAASGRTFYLYTMGWYRQAPGKERELVAAITGGGRTYYADSVKGRFTISRDNAKNTVYLQMNSLKPEDTAVYYCNADYAYYSYDYWGQGTQVTVSS | low polyreactivity
QVQLVESGGGLVQAGGSLRLSCAASGRTFYLYTMGWYRQAPGKERELVAGISWSGGSTYADSVKGRFTISRDNAKNTVYLQMNSLKPEDTAVYYCAAEVYYGYDYWGQGTQVTVSS | low polyreactivity
QVQLVESGGGLVQAGGSLRLSCAASGRTFYNYAMGWYRQAPGKERELVAAIDWGSDSTYYADSVKGRFTISRDNAKNTVYLQMNSLKPEDTAVYYCAAYLVSVNSRTYDYWGQGTQVTVSS | low polyreactivity
